Laboratory results: patent publication US20240277845A1
Residue numbers refer to the chain shown, from its start. In names and notes the source's numbering stands. One block for each binder: values may come before it.

Columns and labels:
Fc-wtNKG2D (human) = Fc-wtNKG2D (human) (UniProt P26718); experiment: ELISA; wells coated with Fc-wtNKG2D, R3Mab heavy-chain MicAbody titrated
Fc-iNKG2D.YA (human) = Fc-iNKG2D.YA (human) (UniProt P26718); experiment: ELISA; wells coated with Fc-iNKG2D.YA, R3Mab heavy-chain MicAbody titrated
Sequence of Fc-iNKG2D.YA (human) (P26718 other isoform, or with tags, fused parts or gaps limits assumed): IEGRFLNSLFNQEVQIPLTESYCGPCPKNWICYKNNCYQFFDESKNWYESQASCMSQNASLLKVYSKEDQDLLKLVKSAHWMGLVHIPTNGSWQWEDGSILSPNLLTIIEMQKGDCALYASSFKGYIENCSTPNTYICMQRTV

Sequence of Fc-wtNKG2D (human) (P26718 other isoform, or with tags, fused parts or gaps limits assumed): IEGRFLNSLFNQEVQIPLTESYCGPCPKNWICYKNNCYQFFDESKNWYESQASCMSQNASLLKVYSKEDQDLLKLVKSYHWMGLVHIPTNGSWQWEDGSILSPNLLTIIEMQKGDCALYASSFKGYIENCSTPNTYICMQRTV

EC50 (read off the curve) (Fc-wtNKG2D (human)): 400 pM
B1: R3Mab heavy-chain fusion of wild-type ULBP2 (MicAbody) (bispecific antibody, part only; not given: R3Mab variable domains, light chain, Fc, not shown: a dimerising Fc or GST)
heavy, part: GGGSDPHSLCYDITVIPKFRPGPRWCAVQGQVDEKTFLHYDCGNKTVTPVSPLGKKLNVTTAWKAQNPVLREVVDILTEQLRDIQLENYTPKEPLTLQARMSCEQKAEGHSSGSWQFSFDGQIFLLFDSEKRMWTTVHPGARKMKEKWENDKVVAMSFHYFSMGDCIGWLEDFLMGMDSTLEPSAGAP

EC50 (read off the curve) (Fc-wtNKG2D (human)): 20 pM
B2: R3Mab heavy-chain fusion of ULBP2 R81W (MicAbody) (bispecific antibody, part only; not given: R3Mab variable domains, light chain, Fc, not shown: a dimerising Fc or GST)
heavy, part: B1 heavy, part with R82W

EC50 (read off the curve) (Fc-iNKG2D.YA (human)): 20 pM
B3: R3Mab heavy-chain fusion of U2S3 (MicAbody) (bispecific antibody, part only; not given: R3Mab variable domains, light chain, Fc, IgG1, not shown: a dimerising Fc or GST)
heavy, part: GGGSEPHSLSYDITVIPKFRPGPRWCAVQGQVDEKTFLHYDCGNKTVTPVSPLGKKLNVTTAWKAQNPVLREVVDILTEQLWDIQLENYTPKEPLTLQARMSCEQKAEGHSSGSWQFSFDGQIFLLFDSEKRMWTTVHPGARKMKEKWENDKVVATKLYLWSMGDCIGWLEDFLMGMDSTLEP
